Laboratory results published in patent US20210246218A1 (LYVGEN BIOPHARMA SUZHOU, published 2021).

Assays:
Test in all cases: ELISA, protein coated at 1 µg/mL
human LTBR protein = molecular target: T1, human LTBR protein (human, UniProt P36941 31-227)
T1 construct: also called LT β R; LTβR
Protocol: (§1) The plate was decanted and washed once; assay diluent was added at 200 μL/well. After a 1-hour incubation at room temperature, the plate was washed with PBST one time. […] These samples were added into the plate 50 μL/well. The plate was incubated 1 hour at room temperature and then washed three times with PBST. Goat anti-human IgG-H+L HRP-conjugated at 1:100,000 dilution or goat anti-mouse IgG (H+L) secondary antibody, HRP, at 1:50,000 dilution was added to the plate at 100 μL/well. The plate was incubated 1 hour at room temperature followed by washing with PBST four times. The TMB substrate solution was added 100 μL/well. The color was permitted to develop for 15 minutes and then 100 μL/well 2N H₂SO₄ was added to terminate the reaction. Absorbance at 450 nm and 620 nm was determined by a Tecan F200 Pro reader.

rat CD137 protein = molecular target: T2, rat CD137 protein (rat, UniProt Q4W8J3 24-189)
T2 construct: Coated on ELISA plates; also called Rodent CD137
T2 sequence: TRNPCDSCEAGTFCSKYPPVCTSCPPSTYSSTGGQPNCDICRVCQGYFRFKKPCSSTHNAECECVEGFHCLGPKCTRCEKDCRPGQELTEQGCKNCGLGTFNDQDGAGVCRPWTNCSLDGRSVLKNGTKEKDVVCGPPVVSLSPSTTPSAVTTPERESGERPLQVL
Protocol: as §1

human CD19 protein = molecular target: T3, human CD19 protein (human, UniProt P15391 20-291)
T3 sequence (looked up): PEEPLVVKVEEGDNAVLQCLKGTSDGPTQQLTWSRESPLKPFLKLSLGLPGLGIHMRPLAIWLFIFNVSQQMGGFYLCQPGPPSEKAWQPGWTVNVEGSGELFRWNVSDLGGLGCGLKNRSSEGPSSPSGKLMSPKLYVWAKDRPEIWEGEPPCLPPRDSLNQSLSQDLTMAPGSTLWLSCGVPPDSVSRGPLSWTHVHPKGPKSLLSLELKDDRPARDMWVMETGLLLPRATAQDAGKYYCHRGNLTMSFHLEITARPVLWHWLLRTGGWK
Protocol: as §1

human PD-L1 protein = human PD-L1 protein (human, UniProt Q9NZQ7 19-238)
Protocol: as §1

human GITR protein = molecular target: T4, human GITR protein (human, UniProt Q9Y5U5 26-161)
T4 sequence (looked up): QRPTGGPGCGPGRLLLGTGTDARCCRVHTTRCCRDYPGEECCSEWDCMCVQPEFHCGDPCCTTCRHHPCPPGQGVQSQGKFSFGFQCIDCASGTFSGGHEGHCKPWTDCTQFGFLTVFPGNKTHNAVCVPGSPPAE
Protocol: as §1

human TIGIT protein = molecular target: T5, human TIGIT protein (human, UniProt Q495A1 22-141)
T5 sequence (looked up): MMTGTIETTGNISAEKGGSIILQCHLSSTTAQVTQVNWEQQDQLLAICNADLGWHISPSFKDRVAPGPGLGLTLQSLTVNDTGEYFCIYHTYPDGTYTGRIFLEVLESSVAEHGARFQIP
Protocol: as §1

human VISTA protein = human VISTA protein (human, UniProt Q9H7M9 33-194)
Protocol: as §1

human PD-1 protein = human PD-1 protein (human, UniProt Q15116 25-167)
Protocol: as §1

human CD20 protein = molecular target: T6, human CD20 protein (human, UniProt P11836 1-297, limits assumed)
T6 sequence (looked up): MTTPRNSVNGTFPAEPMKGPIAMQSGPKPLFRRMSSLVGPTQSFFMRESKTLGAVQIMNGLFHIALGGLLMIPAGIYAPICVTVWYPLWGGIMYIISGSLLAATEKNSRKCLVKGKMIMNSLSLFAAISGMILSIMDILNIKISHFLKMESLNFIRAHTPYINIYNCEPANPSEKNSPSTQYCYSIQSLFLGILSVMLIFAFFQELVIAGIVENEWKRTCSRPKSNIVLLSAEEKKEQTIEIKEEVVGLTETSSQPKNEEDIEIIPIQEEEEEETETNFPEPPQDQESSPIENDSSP
Protocol: as §1

human CD47 protein = human CD47 protein (human, UniProt Q08722 19-139)
Protocol: as §1

human CD27 protein = human CD27 protein (human, UniProt P26842 21-192, limits assumed)
Protocol: as §1

human B7-H3 protein = molecular target: T7, human B7-H3 protein (human, UniProt Q5ZPR3 29-461, limits assumed)
T7 sequence (looked up): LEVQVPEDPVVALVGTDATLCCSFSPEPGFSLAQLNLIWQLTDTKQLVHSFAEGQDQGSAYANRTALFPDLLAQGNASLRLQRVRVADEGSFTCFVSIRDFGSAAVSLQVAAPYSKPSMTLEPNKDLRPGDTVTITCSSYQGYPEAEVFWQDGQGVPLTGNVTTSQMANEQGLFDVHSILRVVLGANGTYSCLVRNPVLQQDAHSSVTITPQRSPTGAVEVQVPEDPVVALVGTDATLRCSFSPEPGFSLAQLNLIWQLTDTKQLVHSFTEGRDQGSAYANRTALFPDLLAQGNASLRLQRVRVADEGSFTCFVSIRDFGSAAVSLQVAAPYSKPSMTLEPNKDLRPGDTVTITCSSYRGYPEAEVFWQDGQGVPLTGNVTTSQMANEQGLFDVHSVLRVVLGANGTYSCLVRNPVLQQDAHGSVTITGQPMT
Protocol: as §1

human B7-H4 protein = molecular target: T8, human B7-H4 protein (human, UniProt Q7Z7D3 29-258, limits assumed)
T8 sequence (looked up): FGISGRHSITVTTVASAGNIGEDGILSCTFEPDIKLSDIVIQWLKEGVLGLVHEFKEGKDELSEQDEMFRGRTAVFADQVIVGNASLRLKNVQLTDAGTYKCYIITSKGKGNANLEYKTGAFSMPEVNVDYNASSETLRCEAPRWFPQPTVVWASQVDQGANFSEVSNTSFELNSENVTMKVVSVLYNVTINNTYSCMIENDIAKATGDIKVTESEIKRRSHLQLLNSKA
Protocol: as §1

Sequence of human CD27 protein (P26842 21-192 limits assumed): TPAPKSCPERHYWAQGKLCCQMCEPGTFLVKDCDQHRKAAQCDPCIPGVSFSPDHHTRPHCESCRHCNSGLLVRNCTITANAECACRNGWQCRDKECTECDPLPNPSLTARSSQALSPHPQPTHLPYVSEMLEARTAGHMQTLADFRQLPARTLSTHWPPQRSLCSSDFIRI
Sequence of human PD-1 protein (Q15116 25-167 limits assumed): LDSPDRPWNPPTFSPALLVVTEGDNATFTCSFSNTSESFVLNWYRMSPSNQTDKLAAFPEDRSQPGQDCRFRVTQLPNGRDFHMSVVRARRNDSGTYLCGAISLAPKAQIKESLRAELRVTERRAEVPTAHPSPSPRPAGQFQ
Sequence of human PD-L1 protein (Q9NZQ7 19-238 limits assumed): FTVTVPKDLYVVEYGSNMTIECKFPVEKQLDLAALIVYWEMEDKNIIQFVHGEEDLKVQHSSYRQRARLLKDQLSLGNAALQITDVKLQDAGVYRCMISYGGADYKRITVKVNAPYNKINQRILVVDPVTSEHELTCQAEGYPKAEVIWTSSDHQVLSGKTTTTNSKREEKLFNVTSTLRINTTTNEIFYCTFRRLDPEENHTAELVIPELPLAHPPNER
Sequence of human CD47 protein (Q08722 19-139 limits assumed): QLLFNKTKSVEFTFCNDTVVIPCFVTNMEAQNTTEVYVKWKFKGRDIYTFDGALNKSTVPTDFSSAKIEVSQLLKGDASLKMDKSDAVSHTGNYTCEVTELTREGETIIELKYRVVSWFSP
T1 sequence (P36941 31-227 limits assumed): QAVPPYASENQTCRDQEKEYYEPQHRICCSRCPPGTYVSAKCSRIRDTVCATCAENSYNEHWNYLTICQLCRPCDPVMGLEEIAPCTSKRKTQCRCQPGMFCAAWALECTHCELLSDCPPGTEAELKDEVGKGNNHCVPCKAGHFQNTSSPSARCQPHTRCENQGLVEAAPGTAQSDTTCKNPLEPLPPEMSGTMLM

B1: Clone 3712-IgG1v (IgG1v/kappa) (antibody)
heavy: QVQLVQSGAEVKKPGASVKVSCKASGYTFAGFEMHWVRQAPGQGLEWMGAIDPKTGGTDYNQKFKDRVTMTRDTSISTAYMELSRLRSDDTAVYYCARDLGYFDVWGQGTLVTVSSASTKGPSVFPLAPSSKSTSGGTAALGCLVKDYFPEPVTVSWNSGALTSGVHTFPAVLQSSGLYSLSSVVTVPSSSLGTQTYICNVNHKPSNTKVDKKVEPKSCDKTHTCPPCPAPELLGPSVFLFPPKPKDTLMISRTPEVTCVVVDVEHEDPEVKFNWYVDGVEVHNAKTKPREEQYNSTYRVVSVLTVLHQDWLNGKEYKCKVSNKALPAPIEKTISKAKGQPREPQVYTLPPSREEMTKNQVSLTCLVKGFYPSDIAVEWESNGQPENNYKTTPPVLDSDGSFFLYSKLTVDKSRWQQGNVFSCSVMHEALHNHYTQKSLSLSPGK
light: DIQMTQSPSSLSASVGDRVTITCRASQDIRSNLNWYQQKPGGAVKLLIYYTSRLHSGVPSRFSGSGSGTDYTLTISSLQPEDFATYFCQQSEKLPRTFGGGTKVEIRRTVAAPSVFIFPPSDEQLKSGTASVVCLLNNFYPREAKVQWKVDNALQSGNSQESVTEQDSKDSTYSLSSTLTLSKADYEKHKVYACEVTHQGLSSPVTKSFNRGEC
notes: copies: 2 + 2
B1: no binding (tested: 10 µg/mL and 1 µg/mL) (human LTBR protein); no binding (tested: 10 µg/mL and 1 µg/mL) (rat CD137 protein); no binding (tested: 10 µg/mL and 1 µg/mL) (human CD19 protein). B1: no binding (tested: 10 µg/mL and 1 µg/mL) (human PD-L1 protein); no binding (tested: 10 µg/mL and 1 µg/mL) (human GITR protein); no binding (tested: 10 µg/mL and 1 µg/mL) (human TIGIT protein). B1: no binding (tested: 10 µg/mL and 1 µg/mL) (human VISTA protein); no binding (tested: 10 µg/mL and 1 µg/mL) (human PD-1 protein); no binding (tested: 10 µg/mL and 1 µg/mL) (human CD20 protein). B1: no binding (tested: 10 µg/mL and 1 µg/mL) (human CD47 protein); no binding (tested: 10 µg/mL and 1 µg/mL) (human CD27 protein); no binding (tested: 10 µg/mL and 1 µg/mL) (human B7-H3 protein). B1: no binding (tested: 10 µg/mL and 1 µg/mL) (human B7-H4 protein).
